Bridge positions count the residues as written; N and C are the ends. Square brackets hold non-standard residues; d marks the D form. Ends that are not written are not given here. 2Nal = N[C@@H](Cc1ccc2ccccc2c1)C(=O)O; Bta = N[C@@H](Cc1csc2ccccc12)C(=O)O; Cha = N[C@@H](CC1CCCCC1)C(=O)O; Pen = CC(C)(S)[C@H](N)C(=O)O; Nle = CCCC[C@H](N)C(=O)O; Ava = NCCCCC(=O)O; GABA = NCCCC(=O)O
Assays:
hMC1-R [1] = biological target: T1, hMC1-R (human, UniProt Q01726 1-317); test: ratio Ki hMC1-R / Ki hMC4-R, same assay
T1 construct: whole, on cells; Assayed as membranes of CHO-K1 cells expressing the receptor; also called hMC-R receptor subtype 1; melanocyte-specific receptor (MC1-R)
Method: Cellular membranes used for the in vitro receptor binding assays were obtained from transgenic CHO-K1 cells stably expressing hMC-R receptor subtypes 1, 3, 4 or 5. […] The pellets were resuspended in the same buffer and centrifuged at 50,000 g for 10 minutes at approximately 4° C. The washed pellets containing the cellular membranes were stored at approximately −80° C.
Competitive inhibition of [¹²⁵I](Tyr²)-(Nle⁴-D-Phe⁷)α-MSH ([¹²⁵I]-NDP-α-MSH, Amersham Biosciences®) binding was carried out in polypropylene 96 well plates. Cell membranes (1-10 μg protein/well) prepared as described above were incubated in 50 mM Tris-HCl at pH 7.4 containing 0.2% bovine serum albumin (BSA), 5 mM MgCl₂, 1 mM CaCl₂ and 0.1 mg/mL bacitracin, with increasing concentrations of the test compound and 0.1-0.3 nM […] for approximately 90-120 minutes at approximately 37° C. Bound [¹²⁵I]-NDP-α-MSH ligand was separated from free [¹²⁵I]-NDP-α-MSH by filtration through GF/C glass fiber filter plates (Unifilter®; Packard) presoaked with 0.1% (w/v) polyethylenimine (PEI), using a Packard Filtermate® harvester. Filters were washed three times with 50 mM Tris-HCl at pH 7.4 at a temperature of approximately 0-4° C. and then assayed for radioactivity using a Packard Topcount® scintillation counter. Binding data were analyzed by computer-assisted non-linear regression analysis (XL fit; IDBS).

hMC1-R [2] = biological target: T1, hMC1-R; test: competition with [125I]-NDP-α-MSH, CHO-K1 membranes
hMC3-R = biological target: T2, hMC3-R (human, UniProt P41968 1-323); test: as above
T2 construct: whole, on cells; Assayed as membranes of CHO-K1 cells expressing the receptor; also called hMC-R receptor subtype 3; melacortin-3 (MC3-R)

hMC4-R = biological target: T3, hMC4-R (human, UniProt P32245 1-332); test: as above
T3 construct: whole, on cells; Assayed as membranes of CHO-K1 cells expressing the receptor; also called hMC-R receptor subtype 4; melanocortin-4 (MC4-R)

hMC5-R = biological target: T4, hMC5-R (human, UniProt P33032 1-325); test: as above
T4 construct: whole, on cells; Assayed as membranes of CHO-K1 cells expressing the receptor; also called hMC-R receptor subtype 5; melanocortin-5 receptor (MC5-R)
T4 sequence (P33032 whole entry): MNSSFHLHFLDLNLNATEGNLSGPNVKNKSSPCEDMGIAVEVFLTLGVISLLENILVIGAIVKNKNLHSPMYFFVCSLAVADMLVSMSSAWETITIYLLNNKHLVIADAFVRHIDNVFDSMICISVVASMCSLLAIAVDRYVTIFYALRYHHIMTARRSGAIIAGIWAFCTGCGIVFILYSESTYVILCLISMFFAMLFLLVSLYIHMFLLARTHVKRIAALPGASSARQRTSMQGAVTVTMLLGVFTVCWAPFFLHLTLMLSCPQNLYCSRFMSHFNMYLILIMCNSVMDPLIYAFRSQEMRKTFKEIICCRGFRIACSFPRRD

T3 sequence (P32245 whole entry): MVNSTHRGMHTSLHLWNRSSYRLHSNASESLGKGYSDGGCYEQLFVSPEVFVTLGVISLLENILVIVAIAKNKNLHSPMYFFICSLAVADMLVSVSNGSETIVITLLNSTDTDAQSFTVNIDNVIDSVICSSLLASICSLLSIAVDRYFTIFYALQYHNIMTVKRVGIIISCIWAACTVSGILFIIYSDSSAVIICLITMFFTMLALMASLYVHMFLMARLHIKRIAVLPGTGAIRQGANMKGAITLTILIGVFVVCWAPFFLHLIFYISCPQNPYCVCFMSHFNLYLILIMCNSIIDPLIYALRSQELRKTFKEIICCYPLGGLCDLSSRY
T1 sequence (Q01726 whole entry): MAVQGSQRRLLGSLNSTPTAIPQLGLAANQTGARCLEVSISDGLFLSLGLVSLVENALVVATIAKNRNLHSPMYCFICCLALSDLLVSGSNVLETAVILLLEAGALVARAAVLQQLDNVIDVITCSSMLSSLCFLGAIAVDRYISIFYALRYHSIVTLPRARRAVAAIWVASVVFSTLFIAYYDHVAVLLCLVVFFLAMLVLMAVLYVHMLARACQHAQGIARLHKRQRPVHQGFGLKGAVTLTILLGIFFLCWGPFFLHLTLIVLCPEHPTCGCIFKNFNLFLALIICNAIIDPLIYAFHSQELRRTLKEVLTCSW
T2 sequence (P41968 whole entry): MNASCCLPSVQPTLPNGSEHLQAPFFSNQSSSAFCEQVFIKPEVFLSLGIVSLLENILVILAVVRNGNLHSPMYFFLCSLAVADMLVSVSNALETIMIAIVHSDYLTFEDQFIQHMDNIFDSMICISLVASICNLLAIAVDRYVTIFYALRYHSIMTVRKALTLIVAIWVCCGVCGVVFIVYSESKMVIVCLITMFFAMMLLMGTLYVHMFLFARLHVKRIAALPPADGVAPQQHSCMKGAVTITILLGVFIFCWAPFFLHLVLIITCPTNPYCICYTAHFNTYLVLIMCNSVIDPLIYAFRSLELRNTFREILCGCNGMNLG

Row | Binder | Ki hMC1-R/MC4-R (hMC1-R [1]) | Ki (hMC1-R [2]) [nM] | Ki (hMC3-R) [nM] | Ki (hMC4-R) [nM] | Ki (hMC5-R) [nM]
1 | Ac-C[dA]H[dF]R[2Nal]AC-NH2 (disulfide 1-8; SMILES CC(=O)N[C@H]1CSSC[C@@H](C(N)=O)NC(=O)[C@H](C)NC(=O)[C@H](Cc2ccc3ccccc3c2)NC(=O)[C@H](CCCNC(=N)N)NC(=O)[C@@H](Cc2ccccc2)NC(=O)[C@H](Cc2c[nH]cn2)NC(=O)[C@@H](C)NC1=O) [Ac-c(Cys-D-Ala-His-D-Phe-Arg-2-Nal-Ala-Cys)-NH2] | 3.24 | 132 | 4560 | 40.7 | 8810
2 | Ac-[Nle]C[dL]H[dF]RWC-NH2 (disulfide 2-8; SMILES CCCC[C@H](NC(C)=O)C(=O)N[C@H]1CSSC[C@@H](C(N)=O)NC(=O)[C@H](Cc2c[nH]c3ccccc23)NC(=O)[C@H](CCCNC(=N)N)NC(=O)[C@@H](Cc2ccccc2)NC(=O)[C@H](Cc2c[nH]cn2)NC(=O)[C@@H](CC(C)C)NC1=O) [Ac-Nle-c(Cys-D-Leu-His-D-Phe-Arg-Trp-Cys)-NH2] | 0.39 | 1.6 | 6.82 | 4.13 | 5.57
3 | Ac-[Nle][Pen]H[dF]RW[GABA][Pen]-NH2 (disulfide 2-8) [Ac-Nle-c(Pen-His-D-Phe-Arg-Trp-Gaba-Pen)-NH2] | 0.21 | 0.744 | 178 | 3.51 | 2.69
4 | [Nle]CH[dF]RW[Ava]C-NH2 (disulfide 2-8; N-terminus assumed; SMILES CCCC[C@H](N)C(=O)N[C@H]1CSSC[C@@H](C(N)=O)NC(=O)CCCCNC(=O)[C@H](Cc2c[nH]c3ccccc23)NC(=O)[C@H](CCCNC(=N)N)NC(=O)[C@@H](Cc2ccccc2)NC(=O)[C@H](Cc2c[nH]cn2)NC1=O) [Nle-c(Cys-His-D-Phe-Arg-Trp-Apn-Cys)-NH2] | 0.1 | 0.07 | 4.1 | 0.85 | 8.8
5 | Ac-[Cha]CH[dF]RW[GABA]C-NH2 (disulfide 2-8) [Ac-Cha-c(Cys-His-D-Phe-Arg-Trp-Gaba-Cys)-NH2] | 0.12 | 0.107 | 9.11 | 0.884 | 0.354
6 | Ac-CEH[dF]RWAC-NH2 (disulfide 1-8; SMILES CC(=O)N[C@H]1CSSC[C@@H](C(N)=O)NC(=O)[C@H](C)NC(=O)[C@H](Cc2c[nH]c3ccccc23)NC(=O)[C@H](CCCNC(=N)N)NC(=O)[C@@H](Cc2ccccc2)NC(=O)[C@H](Cc2c[nH]cn2)NC(=O)[C@H](CCC(=O)O)NC1=O) [Ac-c(Cys-Glu-His-D-Phe-Arg-Trp-Ala-Cys)-NH2] | 2.33 | 111 | 1710 | 47.7 | 694
7 | Ac-[Nle]D[dA]H[dF]RWK-NH2 (lactam 2-8; SMILES CCCC[C@H](NC(C)=O)C(=O)N[C@H]1CC(=O)NCCCC[C@@H](C(N)=O)NC(=O)[C@H](Cc2c[nH]c3ccccc23)NC(=O)[C@H](CCCNC(=N)N)NC(=O)[C@@H](Cc2ccccc2)NC(=O)[C@H](Cc2c[nH]cn2)NC(=O)[C@@H](C)NC1=O) [Ac-Nle-c(Asp-D-Ala-His-D-Phe-Arg-Trp-Lys)-NH2] | 0.26 | 0.659 | 98.9 | 2.55 | 4.19
8 | Ac-[Nle]CHFR[dW][GABA]C-NH2 (disulfide 2-8, Phe 4 is the L form here) [Ac-Nle-c(Cys-His-Phe-Arg-D-Trp-Gaba-Cys)-NH2] | 0.04 | 5.2 | 150 | 138 | 20.3
9 | Ac-[2Nal]CH[dF]RW[GABA]C-NH2 (disulfide 2-8) [Ac-2-Nal-c(Cys-His-D-Phe-Arg-Trp-Gaba-Cys)-NH2] | 0.19 | 0.56 | 39.2 | 2.94 | 2.73
10 | Ac-[dR]CH[dF]RW[GABA][Pen]-NH2 (disulfide 2-8; SMILES CC(=O)N[C@H](CCCNC(=N)N)C(=O)N[C@H]1CSSC(C)(C)[C@@H](C(N)=O)NC(=O)CCCNC(=O)[C@H](Cc2c[nH]c3ccccc23)NC(=O)[C@H](CCCNC(=N)N)NC(=O)[C@@H](Cc2ccccc2)NC(=O)[C@H](Cc2c[nH]cn2)NC1=O) [Ac-D-Arg-c(Cys-His-D-Phe-Arg-Trp-Gaba-Pen)-NH2] | 0.36 | 3.93 | 172 | 11 | 538
11 | [Nle]CH[dF]RW[GABA]C-NH2 (disulfide 2-8) [Nle-c(Cys-His-D-Phe-Arg-Trp-Gaba-Cys)-NH2] | 0.1 | 0.05 | 1.3 | 0.47 | 0.2
12 | Ac-ICH[dF]RW[GABA]C-NH2 (disulfide 2-8; SMILES CC[C@H](C)[C@H](NC(C)=O)C(=O)N[C@H]1CSSC[C@@H](C(N)=O)NC(=O)CCCNC(=O)[C@H](Cc2c[nH]c3ccccc23)NC(=O)[C@H](CCCNC(=N)N)NC(=O)[C@@H](Cc2ccccc2)NC(=O)[C@H](Cc2c[nH]cn2)NC1=O) [Ac-Ile-c(Cys-His-D-Phe-Arg-Trp-Gaba-Cys)-NH2] | 0.14 | 0.148 | 13.9 | 1.06 | 0.423
13 | Ac-VCH[dF]RW[GABA]C-NH2 (disulfide 2-8; SMILES CC(=O)N[C@H](C(=O)N[C@H]1CSSC[C@@H](C(N)=O)NC(=O)CCCNC(=O)[C@H](Cc2c[nH]c3ccccc23)NC(=O)[C@H](CCCNC(=N)N)NC(=O)[C@@H](Cc2ccccc2)NC(=O)[C@H](Cc2c[nH]cn2)NC1=O)C(C)C) [Ac-Val-c(Cys-His-D-Phe-Arg-Trp-Gaba-Cys)-NH2] | 0.13 | 0.256 | 29.9 | 1.98 | 0.864
14 | Ac-LCH[dF]RW[GABA]C-NH2 (disulfide 2-8) [Ac-Leu-c(Cys-His-D-Phe-Arg-Trp-Gaba-Cys)-NH2] | 0.22 | 0.216 | 17.4 | 0.995 | 0.486
15 | Ac-RCH[dF]RW[GABA][Pen]-NH2 (disulfide 2-8; SMILES CC(=O)N[C@@H](CCCNC(=N)N)C(=O)N[C@H]1CSSC(C)(C)[C@@H](C(N)=O)NC(=O)CCCNC(=O)[C@H](Cc2c[nH]c3ccccc23)NC(=O)[C@H](CCCNC(=N)N)NC(=O)[C@@H](Cc2ccccc2)NC(=O)[C@H](Cc2c[nH]cn2)NC1=O) [Ac-Arg-c(Cys-His-D-Phe-Arg-Trp-Gaba-Pen)-NH2] | 0.4 | 1.81 | 20.5 | 4.57 | 502
16 | Ac-[Nle]D[dA]H[dF]R[Bta]K-NH2 (lactam 2-8; SMILES CCCC[C@H](NC(C)=O)C(=O)N[C@H]1CC(=O)NCCCC[C@@H](C(N)=O)NC(=O)[C@H](Cc2csc3ccccc23)NC(=O)[C@H](CCCNC(=N)N)NC(=O)[C@@H](Cc2ccccc2)NC(=O)[C@H](Cc2c[nH]cn2)NC(=O)[C@@H](C)NC1=O) [Ac-Nle-c(Asp-D-Ala-His-D-Phe-Arg-Bal-Lys)-NH2] | 0.08 | 4.12 | 445 | 50.6 | 4300
17 | Ac-[Nle]CH[dF]RW[GABA][Pen]-NH2 (disulfide 2-8) [Ac-Nle-c(Cys-His-D-Phe-Arg-Trp-Gaba-Pen)-NH2] | 0.3 | 0.12 | 10 | 0.43 | 0.42
